Consider two substances from patent publication US20050186662A1.

The experiment deals with neonatal Fc receptor (FcRn) of the neonatal rat small intestine (rat) (UniProt P13599). Briefly: cell-based or functional assay.
UniProt P13599, sequence (P13599 23-366, form in doubt): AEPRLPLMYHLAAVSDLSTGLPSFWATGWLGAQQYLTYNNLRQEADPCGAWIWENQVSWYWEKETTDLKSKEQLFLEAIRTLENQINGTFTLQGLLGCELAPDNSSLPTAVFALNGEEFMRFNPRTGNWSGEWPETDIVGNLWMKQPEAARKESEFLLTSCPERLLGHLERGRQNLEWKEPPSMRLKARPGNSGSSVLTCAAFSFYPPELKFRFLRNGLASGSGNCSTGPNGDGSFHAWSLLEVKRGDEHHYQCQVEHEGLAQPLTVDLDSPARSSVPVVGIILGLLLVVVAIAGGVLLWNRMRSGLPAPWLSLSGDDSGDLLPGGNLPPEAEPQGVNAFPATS

On to heterodimer FSH-Fc (Fc fusion), for which the reduction in transport (oral delivery of 125I-labelled protein into neonatal rat serum) in the presence of 300-fold excess unlabeled human IgG1, by phosphorimage analysis amounted to 53%.
Consider “single-chain FSH-Fc (from UniProt P01225 19-129; P01215 25-116) (Fc fusion)”, for which the reduction in transport (oral delivery of 125I-labelled protein into neonatal rat serum) in the presence of 300-fold excess unlabeled human IgG1, by phosphorimage analysis was 83%.
